Experiments:
[1] = molecular target: bovine HD1 (bovine thymus trapoxin binding proteins p46-p49) (bovine) (UniProt Q32PJ8); assay: depletion of bovine thymus Mono Q fractions by the K-trap affinity matrix
[2] = molecular target: bovine HD1 (bovine thymus trapoxin binding proteins p46-p49) (bovine) (UniProt Q32PJ8); assay: cell-based or functional assay

bovine HD1 (bovine thymus trapoxin binding proteins p46-p49) (bovine), sequence (Q32PJ8 whole entry): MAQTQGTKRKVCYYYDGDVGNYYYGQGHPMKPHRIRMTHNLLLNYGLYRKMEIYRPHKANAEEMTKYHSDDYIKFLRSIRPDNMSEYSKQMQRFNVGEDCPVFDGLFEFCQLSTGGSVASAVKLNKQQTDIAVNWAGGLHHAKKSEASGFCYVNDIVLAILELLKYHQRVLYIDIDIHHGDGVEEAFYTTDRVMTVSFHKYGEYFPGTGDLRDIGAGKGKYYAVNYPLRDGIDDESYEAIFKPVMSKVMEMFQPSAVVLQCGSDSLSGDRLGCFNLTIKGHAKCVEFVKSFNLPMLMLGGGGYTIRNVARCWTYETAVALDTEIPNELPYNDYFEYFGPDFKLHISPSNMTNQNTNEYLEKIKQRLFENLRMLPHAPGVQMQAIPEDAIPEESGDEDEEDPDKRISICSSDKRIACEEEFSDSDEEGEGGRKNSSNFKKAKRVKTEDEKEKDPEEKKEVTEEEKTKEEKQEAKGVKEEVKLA

percent of trapoxin binding and histone deacetylase activity depleted [1] | inhibition of histone deacetylase activity [2] | Substance
90% |  | K-trap affinity matrix (peptide)
 | 20 nM | trapoxin (peptide)

Source: patent US20090221474A1
